Biological target: chondroitin sulfate proteoglycan (human) (UniProt Q6UVK1)

9.2.27 PE38-KDEL (from UniProt P11439) (scFv)
IC50 cytotoxicity, A375 (Expt 2) melanoma cells (9.2.27F10): 4.5 µg/mL | IC50 cytotoxicity, A375 (Expt 2) melanoma cells (9.2.27F11): 4.5 µg/mL | IC50 cytotoxicity, A375 (Expt 3) melanoma cells (9.2.27F11): 0.6 µg/mL | IC50 cytotoxicity, D54 glioma cells (9.2.27F10): 0.055 µg/mL | IC50 cytotoxicity, D54 glioma cells (9.2.27F11): 0.07 µg/mL | IC50 cytotoxicity, D79 glioma cells (9.2.27F10): 0.22 µg/mL | IC50 cytotoxicity, D79 glioma cells (9.2.27F11): 0.1 µg/mL | IC50 cytotoxicity, D245 glioma cells (9.2.27F10): 0.008 µg/mL | IC50 cytotoxicity, D245 glioma cells (9.2.27F11): 0.006 µg/mL | IC50 cytotoxicity, D247 glioma cells (9.2.27F11): 0.08 µg/mL | IC50 cytotoxicity, H350 melanoma cells (9.2.27F10): 0.02 µg/mL | IC50 cytotoxicity, H350 melanoma cells (9.2.27F11): 0.02 µg/mL | IC50 cytotoxicity, Malme3M melanoma cells (9.2.27F10): 0.018 µg/mL | IC50 cytotoxicity, Malme3M melanoma cells (9.2.27F11): 0.02 µg/mL | IC50 cytotoxicity, SKMel2 melanoma cells (9.2.27F10): 2.4 µg/mL | IC50 cytotoxicity, SKMel2 melanoma cells (9.2.27F11): 0.7 µg/mL | IC50 cytotoxicity, SKMel5 melanoma cells (9.2.27F10): 0.35 µg/mL | IC50 cytotoxicity, SKMel5 melanoma cells (9.2.27F11): 0.2 µg/mL | IC50 cytotoxicity, TB2620 glioma cells (9.2.27F10): 0.5 µg/mL | IC50 cytotoxicity, TB2620 glioma cells (9.2.27F11): 0.18 µg/mL

MEL-14 PE38-KDEL (from UniProt P11439) (scFv)
IC50 cytotoxicity, A375 (Expt 2) melanoma cells (Mel14-KDEL): 0.5 µg/mL | IC50 cytotoxicity, A375 (Expt 3) melanoma cells (Mel14-KDEL): 0.45 µg/mL | IC50 cytotoxicity, D54 glioma cells (Mel14-KDEL): 0.05 µg/mL | IC50 cytotoxicity, D79 glioma cells (Mel14-KDEL): 0.2 µg/mL | IC50 cytotoxicity, D245 glioma cells (Mel14-KDEL): 0.004 µg/mL | IC50 cytotoxicity, D247 glioma cells (Mel14-KDEL): 0.1 µg/mL | IC50 cytotoxicity, H350 melanoma cells (Mel14-KDEL): 0.008 µg/mL | IC50 cytotoxicity, Malme3M melanoma cells (Mel14-KDEL): 0.001 µg/mL | IC50 cytotoxicity, SKMel2 melanoma cells (Mel14-KDEL): 0.036 µg/mL | IC50 cytotoxicity, SKMel5 melanoma cells (Mel14-KDEL): 0.06 µg/mL | IC50 cytotoxicity, TB2620 glioma cells (Mel14-KDEL): 0.15 µg/mL
